The text below walks through data of the supplement of paper PMC9112550, “Optimization of the antimicrobial peptide Bac7 by deep mutational scanning” (BMC Biology, 2022).

This data set has as its system Escherichia coli TOP10. The experiment in a line: shrunken log2 fold change of peptide-encoding DNA abundance (4.5 h post-induction vs induction); higher = less antimicrobial activity (less host growth inhibition). Conditions: time post-induction: 4.5 h; library: site-saturation at positions 5, 18, 19, 20.
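Also: peptides expressed intracellularly from a pBAD plasmid library in pooled LB shake-flask culture, induced with 0.3% L-arabinose, DNA abundance read by NGS, three biological replicates, DESeq2 with apeglm shrinkage.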

In the case of RRIRMRPPRLPRPRPRPYTCPRP, the “shrunken log2 fold change” value stood at 8.02e-05.

On to RRIRFRPPRLPRPRPRPEQVPRP, for which the “shrunken log2 fold change” value was 0.0138.

Take RRIRTRPPRLPRPRPRPGRWPRP: the “shrunken log2 fold change” value turned out to be 0.393.

For RRIRFRPPRLPRPRPRPQFFPRP, the “shrunken log2 fold change” value was -0.193.

As to RRIRFRPPRLPRPRPRPYWCPRP, the “shrunken log2 fold change” value is -0.399.

As for RRIRLRPPRLPRPRPRPENVPRP, the “shrunken log2 fold change” value is -0.0483.

For RRIRNRPPRLPRPRPRPAYEPRP, the “shrunken log2 fold change” value is -0.0122.

For the sequence RRIRYRPPRLPRPRPRPVMNPRP, the “shrunken log2 fold change” value was -0.115.

RRIRTRPPRLPRPRPRPGMSPRP: the “shrunken log2 fold change” value was -0.352.

For the sequence RRIRGRPPRLPRPRPRPHWAPRP, the “shrunken log2 fold change” value is 0.362.

RRIRERPPRLPRPRPRPPYPPRP: the “shrunken log2 fold change” value was -0.32.

As for RRIRYRPPRLPRPRPRPNKWPRP, the “shrunken log2 fold change” value worked out at 0.0191.

In the case of RRIRMRPPRLPRPRPRPIKPPRP, the “shrunken log2 fold change” value is -0.231.

RRIRDRPPRLPRPRPRPIDYPRP: the “shrunken log2 fold change” value was -0.0396.

Take RRIRARPPRLPRPRPRPKNRPRP: the “shrunken log2 fold change” value is 0.134.

Regarding RRIRLRPPRLPRPRPRPMKMPRP, the “shrunken log2 fold change” value is -0.409.

Take RRIRERPPRLPRPRPRPERQPRP: the “shrunken log2 fold change” value is -0.0184.

For RRIRTRPPRLPRPRPRPIWVPRP, the “shrunken log2 fold change” value is -0.0869.

Turning to RRIRPRPPRLPRPRPRPLDNPRP, the “shrunken log2 fold change” value is -0.171.

With RRIRFRPPRLPRPRPRPVDPPRP, the “shrunken log2 fold change” value is -0.228.

Take RRIRIRPPRLPRPRPRPVCNPRP: the “shrunken log2 fold change” value was -0.52.

For RRIRGRPPRLPRPRPRPKEGPRP, the “shrunken log2 fold change” value is 1.62.

In the case of RRIRHRPPRLPRPRPRPCPCPRP, the “shrunken log2 fold change” value is -0.114.

As for RRIRMRPPRLPRPRPRPTSFPRP, the “shrunken log2 fold change” value was found to be 0.347.

Regarding RRIRHRPPRLPRPRPRPPAIPRP, the “shrunken log2 fold change” value turned out to be 0.0959.

As to RRIRSRPPRLPRPRPRPTREPRP, the “shrunken log2 fold change” value was 0.536.

For the sequence RRIRMRPPRLPRPRPRPHSAPRP, the “shrunken log2 fold change” value is 0.283.

Turning to RRIRSRPPRLPRPRPRPSKMPRP, the “shrunken log2 fold change” value is -0.0555.

For the sequence RRIRNRPPRLPRPRPRPGHYPRP, the “shrunken log2 fold change” value is -0.171.

In the case of RRIRRRPPRLPRPRPRPKDKPRP, the “shrunken log2 fold change” value came out at 0.239.

Consider RRIRIRPPRLPRPRPRPNIYPRP, for which the “shrunken log2 fold change” value was -0.111.

Regarding RRIRGRPPRLPRPRPRPPGYPRP, the “shrunken log2 fold change” value stood at 0.737.

As for RRIRKRPPRLPRPRPRPREAPRP, the “shrunken log2 fold change” value turned out to be 1.44.

On to RRIRLRPPRLPRPRPRPRLLPRP, for which the “shrunken log2 fold change” value turned out to be 0.167.

In the case of RRIRPRPPRLPRPRPRPLEGPRP, the “shrunken log2 fold change” value was 0.179.

RRIRERPPRLPRPRPRPPFTPRP: the “shrunken log2 fold change” value was determined as 1.17.

For the sequence RRIRYRPPRLPRPRPRPKWAPRP, the “shrunken log2 fold change” value is -0.0552.

Turning to RRIRTRPPRLPRPRPRPQMNPRP, the “shrunken log2 fold change” value was -0.345.

RRIRLRPPRLPRPRPRPGFYPRP: the “shrunken log2 fold change” value was -0.102.

For RRIRIRPPRLPRPRPRPRQMPRP, the “shrunken log2 fold change” value is 0.0961.

For the sequence RRIRFRPPRLPRPRPRPKKMPRP, the “shrunken log2 fold change” value is 0.153.

On to RRIRDRPPRLPRPRPRPHAEPRP, for which the “shrunken log2 fold change” value came to 0.0887.

Regarding RRIRDRPPRLPRPRPRPWIEPRP, the “shrunken log2 fold change” value stood at 0.135.

On to RRIRRRPPRLPRPRPRPAVAPRP, for which the “shrunken log2 fold change” value was found to be 0.66.

For the sequence RRIRVRPPRLPRPRPRPYDEPRP, the “shrunken log2 fold change” value is -0.0163.

For the sequence RRIRMRPPRLPRPRPRPYRAPRP, the “shrunken log2 fold change” value was -0.691.

Consider RRIRNRPPRLPRPRPRPARVPRP, for which the “shrunken log2 fold change” value was 0.574.

Regarding RRIRTRPPRLPRPRPRPDTCPRP, the “shrunken log2 fold change” value is -0.0125.

In the case of RRIRQRPPRLPRPRPRPPQVPRP, the “shrunken log2 fold change” value was found to be 1.3.

RRIRFRPPRLPRPRPRPILAPRP: the “shrunken log2 fold change” value amounted to 0.0156.

In the case of RRIRTRPPRLPRPRPRPIICPRP, the “shrunken log2 fold change” value was -0.121.

As for RRIRMRPPRLPRPRPRPHSLPRP, the “shrunken log2 fold change” value is -0.0589.

Regarding RRIRMRPPRLPRPRPRPNNYPRP, the “shrunken log2 fold change” value was determined as 0.0147.

RRIRERPPRLPRPRPRPMVNPRP: the “shrunken log2 fold change” value is -0.0701.

Regarding RRIRARPPRLPRPRPRPHAHPRP, the “shrunken log2 fold change” value was 0.254.

Consider RRIRLRPPRLPRPRPRPPVLPRP, for which the “shrunken log2 fold change” value amounted to 0.0296.

Consider RRIRWRPPRLPRPRPRPRCLPRP, for which the “shrunken log2 fold change” value was 0.164.

In the case of RRIRRRPPRLPRPRPRPHDGPRP, the “shrunken log2 fold change” value is -0.0863.

Consider RRIRERPPRLPRPRPRPGFQPRP, for which the “shrunken log2 fold change” value was -0.104.

Turning to RRIRQRPPRLPRPRPRPCFMPRP, the “shrunken log2 fold change” value was 0.628.

Take RRIRWRPPRLPRPRPRPCIYPRP: the “shrunken log2 fold change” value is -0.162.

Turning to RRIRQRPPRLPRPRPRPGAGPRP, the “shrunken log2 fold change” value is 0.451.

With RRIRYRPPRLPRPRPRPRFGPRP, the “shrunken log2 fold change” value is 0.345.
